According to paper PMC11754618, “Chemical tools to define and manipulate interferon-inducible Ubl protease USP18” (Nature Communications, 2025):
Each block holds one binder with its values, some of them ahead of it.

How the values were obtained:
Settings in all cases: both partners purified
[1] = biological target: T1, His6-Hs.USP18 (16-372) (human, UniProt Q9UMW8 16-372); assay: covalent labelling by an activity-based probe (SDS-PAGE); recombinant USP18 (2 μM), USP5 (1 μM) or USP16 (0.45 μM) with Ac-Ubl-PA probes (10 μM), 3 h, room temperature; higher band on SDS-PAGE, SYPRO Ruby staining
T1 construct: ubiquitin-specific protease 18 (USP18), human, residues 16-372; Expressed as MBP-tev-His6-USP18 from pDest-795 (Addgene 161881 is the vector); the TEV site was cut, His6 stays; also called human USP18; recombinant human USP18; source: insect cells (baculovirus), purified (IMAC, TEV digest, second IMAC); not shown: MBP, N-terminal, cleaved; His6, N-terminal, kept
T1 sequence (looked up): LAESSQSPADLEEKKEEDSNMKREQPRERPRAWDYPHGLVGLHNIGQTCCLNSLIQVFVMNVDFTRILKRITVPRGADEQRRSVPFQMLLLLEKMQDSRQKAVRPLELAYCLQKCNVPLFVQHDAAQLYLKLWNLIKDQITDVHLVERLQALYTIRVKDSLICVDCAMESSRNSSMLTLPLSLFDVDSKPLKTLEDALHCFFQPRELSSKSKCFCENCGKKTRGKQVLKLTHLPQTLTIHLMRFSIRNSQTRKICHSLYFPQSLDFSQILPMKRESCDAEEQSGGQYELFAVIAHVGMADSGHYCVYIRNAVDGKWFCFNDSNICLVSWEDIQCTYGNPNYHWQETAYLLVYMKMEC

[2] = biological target: T2, His6-Mm.USP18 (46-368) (mouse, UniProt Q9WTV6 46-368); assay: as above
T2 construct: ubiquitin-specific protease 18 (USP18), mouse, residues 46-368; Expressed as MBP-tev-His6-USP18 from pDest-795 (Addgene 161881 is the vector); the TEV site ENLYFQG was cut, His6 stays and serves for capture on the NTA chip; also called mouse USP18; recombinant mouse USP18; source: insect cells (baculovirus), purified (IMAC, TEV digest, second IMAC); not shown: MBP, N-terminal, cleaved; His6, …
T2 sequence (looked up): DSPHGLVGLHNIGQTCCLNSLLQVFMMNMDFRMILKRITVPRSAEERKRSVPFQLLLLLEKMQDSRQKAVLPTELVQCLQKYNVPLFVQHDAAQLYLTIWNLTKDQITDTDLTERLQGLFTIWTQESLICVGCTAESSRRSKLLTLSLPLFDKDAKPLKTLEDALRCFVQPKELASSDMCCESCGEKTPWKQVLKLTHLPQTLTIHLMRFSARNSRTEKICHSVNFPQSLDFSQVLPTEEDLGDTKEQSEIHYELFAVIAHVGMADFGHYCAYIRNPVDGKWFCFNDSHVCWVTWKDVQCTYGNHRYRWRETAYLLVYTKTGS

[3] = biological target: T1, His6-Hs.USP18 (16-372); assay: SPR; BIAcore 3000; mouse and human USP18 immobilised via the N-terminal His6 tag on an NTA chip; 25 °C; 50 mM HEPES, 150 mM NaCl, 0.05 mM EDTA, 0.5 mM DTT, 0.01% P20, pH 7.5; 20 μL/min; Langmuir 1:1 model with drift
[4] = biological target: T2, His6-Mm.USP18 (46-368); assay: as above

binding result [1]: binds | binding result [2]: binds
B1: Ac-mISG15CTD[WT]-PA (domain or fragment, mouse)
chain: LSILVRNERGHSNIYEVFLTQTVDTLKKKVSQREQVHEDQFWLSFEGRPMEDKELLGEYGLKPQSTVIKHLRLRG
modifications: N-terminal acetyl; C-terminal propargylamine (PA) warhead replacing Gly155
notes: C-terminal domain of mouse ISG15, Leu80~Gly154; also called Ac-mISG15CTD-PA; WT probe; source: synthetic (solid-phase peptide synthesis), RP-HPLC purified

binding result [3]: binds | binding result [4]: binds
B2: Ac-mISG15CTD-OH (wild type) (domain or fragment, mouse)
chain: B1 chain
modifications: N-terminal acetyl
notes: C-terminal domain of mouse ISG15, Leu80~Gly154; also called Ac-mISG15CTD[WT]-OH; source: synthetic (solid-phase peptide synthesis), RP-HPLC purified
